Measured values taken from patent US20260060994A1, “GLYCOSYLATED COMPOSITIONS AND METHODS OF USE” (Cy Biopharma AG, priority 2023, published 2026).

B1: GLY170: glycosyltransferase (UGT), SEQ ID NO: 28 (protein)
chain: MKKINLVVIPFAGVGHLVSTIEFIKRLLSRDDRFSVTILVIKSPLEHSLDPNTSPPSLPSSHPHIQFINVRSLNPPPIEVFLKSPEKYFTLYIESYKLKVKEIIVDHVLPNSAPLGGLFLDMFSTSMVDVAQELGVPSYVFLTSGAGFLGFVLYLQTRHDRGGAEFELSDIESYIPSYVNPVPSRVLPSLAFNREGGYVSFVNVARNMKKTKGIIVNTVFELESHAISSLLMDGATPPVYAVGPLIDHKGESHFRTDQAKRDKIIKWLDDQPTKSVIFLCFGSFGSFGVPQLREIAIGLEQSGARFLWSIRQAKSIFEMPIECEKPEEFLPQGFLDRTKELGMICGWTPQIEVLAHRAIGGFVSHCGWNSILESLWHGVPIVTWPLYAEQQINAFQIVKDLGLGVELRLDYRRDGGDVDVVMRDEIEKAVRYVMDGDSEVRQRVQEASEKCRKAVVEGGSSFSSIGSLIEAILANIS
B2: GLY73: glycosyltransferase (UGT), SEQ ID NO: 4 (protein)
chain: MEDAIVLYPSPGRGHLISMVELGKLILKNHPSFSITILILSEPNTNANSTAPNYVASSTTEYITTVNSTTPSITFHHLPPISEVPPSTSSFVELSYLIPRFNNQNLHQILKTISQTSKLKAFIIDFFCDAAFEVATNLDIPTYYFFTSGACYLAALLYRPTLHKKVDKSLKDLGNTLLDIPGLPPIQASDLPEPWKDRTSKEYQYSLNVAAHMAKSNGLLVNTFDLLETKAIKAISGGLCVPDRTTPPIFCIGPLISDSNQDVEDHECLNWLNSQPSRSVVFLCFGSLGLFSAKQLKEIAVGLENSGQRFLWVLRNPPSDNDKDPNLDELLPKGFLERTKEKGFVVKQWAPQVAVLRHDSVGGFVTHCGWNSVLEAVWCRVPMVGWPLYAEQRLNSVVLVEEIKLASGLNESEDGLVSAAELEKRVKELMDSEVGTEVRERVSGLRDEAVTAVKEGGSSHVALAKLAELWRQN
B3: GLY146: glycosyltransferase (UGT), SEQ ID NO: 18 (protein)
chain: MKKSELVFIPAPGIGHLVSALEFAKRLIDHDDRHSITVLSMKFPFTPFADEFTKSLVASHHGIQVIDLPPVDPPPPELLNSPENFVCAFIESLIPHVRNTLTDMLSSSSRVSGLVLDFFCLSLIDVGNELGVPSYMFLTSNSGFLGLMLHIPIRHNQKSAEFEESDAEVSLPGFWNPVPVSVLPGAVFDKDGGYSAYLKLAKRFRDTKGIIVNTFSELELDSVKSLSDGETPPVYMVGPVIDLKGQPNPSLDQAQREKIMHWLDDQPESSVVYLCFGSMGTFGAIQLREIATGLERSGHRFLWSMRVPQPAKGPDDILPEGFSERIGGRGLICGWAPQMEVLAHKAIKGFVSHCGWNSILESLWFGVPIATWPIYAEQQMNAFRMVKEFGLAVEMKLDYRLGDLVMADEIEIAVRRLMDDSDELRKKVKEMGEMARQAIIEGGSSYIAVGQLIEDILGSISCDN
B4: GLY74: glycosyltransferase (UGT), SEQ ID NO: 6 (protein)
chain: MRNVELIFIPTPTVGHLVPFLEFARRLIEQDDRIRITILLMKLQGQSHLDTYVKSIASSQPFVRFIDVPELEEKPTLGSTQSVEAYVYDVIERNIPLVRNIVMDILTSLALDGVKVKGLVVDFFCLPMIDVAKDISLPFYVFLTTNSGFLAMMQYLADRHSRDTSVFVRNSEEMLSIPGFVNPVPANVLPSALFVEDGYDAYVKLAILFTKANGILVNSSFDIEPYSVNHFLQEQNYPSVYAVGPIFDLKAQPHPEQDLTRRDELMKWLDDQPEASVVFLCFGSMARLRGSLVKEIAHGLELCQYRFLWSLRKEEVTKDDLPEGFLDRVDGRGMICGWSPQVEILAHKAVGGFVSHCGWNSIVESLWFGVPIVTWPMYAEQQLNAFLMVKELKLAVELKLDYRVHSDEIVNANEIETAIRYVMDTDNNVVRKRVMDISQMIQRATKNGGSSFAAIEKFIYDVIGIKP
B5: GLY77: glycosyltransferase (UGT), SEQ ID NO: 8 (protein)
chain: MSTSELVFIPSPGAGHLPPTVELAKLLLHRDQRLSVTIIVMNLWLGPKHNTEARPCVPSLRFVDIPCDESTMALISPNTFISAFVEHHKPRVRDIVRGIIESDSVRLAGFVLDMFCMPMSDVANEFGVPSYNYFTSGAATLGLMFHLQWKRDHEGYDATELKNSDTELSVPSYVNPVPAKVLPEVVLDKEGGSKMFLDLAERIRESKGIIVNSCQAIERHALEYLSSNNNGIPPVFPVGPILNLENKKDDAKTDEIMRWLNEQPESSVVFLCFGSMGSFNEKQVKEIAVAIERSGHRFLWSLRRPTPKEKIEFPKEYENLEEVLPEGFLKRTSSIGKVIGWAPQMAVLSHPSVGGFVSHCGWNSTLESMWCGVPMAAWPLYAEQTLNAFLLVVELGLAAEIRMDYRTDTKAGYDGGMEVTVEEIEDGIRKLMSDGEIRNKVKDVKEKSRAAVVEGGSSYASIGKFIEHVSNVTI
B6: GLY163: glycosyltransferase (UGT), SEQ ID NO: 22 (protein)
chain: MTGELIFIPMPSLSHIASTMEIAKLLVHRDDRLSITVLLISSQYTTSITTYINSLIASSDYDRIRFIHLPELDSEEEPKRPFMSVIDDNKPIVKEAVTNLALSFDPSHRLAGFVIDMFCVGMIEVADELGLPSYPFFTSSTSFLALQFHVQTLADEEEVDITEFKNSDVMLPIPGLVNPLPAKTILPSAMLNKDWLPYVLNGARGFRKTKGIMVNSFAEIESNAVTSLSNSTVPPVYTVGPIINFKGDGQDSDTCTAHKYSNIMTWLDDQPPSSVLFLCFGSLGSFDEEQVKEIARALEGSGHRFLWSLRRPPPKDKTMSFPTEYENFEEVLPEGFVDRTVGMGKVMGWAPQVAVLAHPSIGGFVTHCGWNSILESVWFGVPMAAWPLYAEQQFNAFHMVVELGLAVEIKMDYRKDYAILGLQEERVSAEVIEKGIRCLMEEDNDARKKVKEMSEISRKALMDGGSSHAVLGQFIEDVMNNISA
B7: GLY169: glycosyltransferase (UGT), SEQ ID NO: 26 (protein)
chain: MKKPELIFIPAPGVGHVISALEFAARLLGHDPRISITVLAIKAPFSSHLDAYTKSLVASQPRIALIDLPPVDPPPPELLRSVEHYVTVYIESYIPHVQRAVGEIQSSRSDSGSDRSVAGFVLDFFCTSMIDVADGFSLPSYIYLTSNAHFLDLMFHLPARHDQIGREARLSDPDLPLPNFANPVPVSVLPSAVLDGEAGGYAAYVKLARRFRDVRGIMVNTFMELERSALGSFSGGSWDGPAVYAVGPVIDPKGVPDPSLDRAHWEKIREWLDEQPPSSVVFLCFGSLGSFDADQVKEIASGIERSGHKFLWSLRPESSQSQLPVGFLERMRGRGIICGWTPQVEVLGHAAIGGFVSHCGWNSILESLWYGVPIVTWPIYAEQQLNAFTMVKELGLAVELRLDYKGQGIGGHLVPAEEIEKAVGRLMGDDAAETRKKVREMREAARNAVKEGGSSYDSIGRLIQDFINSIE

Experiments:
Type in all cases: biochemical
[1] = Glycosylation of 4-OH-MiPT by GLY enzymes (UDP-glucose), LC-UV/MS; details: conditions of Examples 1 and 2 repeated for 4-OH-MiPT; estimate from UV peak areas
Protocol: (§1) The assay conditions were: • 100 mM Tris-HCl, pH 7.4 • 5 mM MgCl2 • 1 mM KCl • 1.25 mM UDP-glucose • 0.5 mM 4-OH-MET • 5% (v/v) DMSO • 0.1 U/uL Fast AP phosphatase • 25% (v/v) GLY enzyme
(§2) Incubation was 24 house at 30° C. Reactions were terminated adding 3 volumes of 75% (v/v) ethanol.
(§3) LC separation was performed using an Agligen 1290 Infinity II UHPLC equipped with a Phenomenex Kinetex XB-C18 column (1.7 um, 100 angstroms, 100×2.1 mm) and 4-HO-MET was detected by absorbance at 210 nm and 268 nm with an Agilent 1260 Infinity II DAD.
(§4) 0.1% Formic acid in water (A) and 0.1% Formic acid in acetonitrile (B) were used as the mobile phases for the elution gradient, with a flow rate of 0.4 ml/min. Retention time for 4-HO-MET using this type of instrument under these condition was 2.6 min. The system was coupled to an Ultivo Triple Quadrupole MS. To verify the presence of possible glycoside products, as SIM (Selected Ion Monitoring) method was used on the MS to analyse for the m/z 381 (theoretical mass to chart ratio of 4-HO-MET-glucoside) and m/z 219 (theoretical mass to charge ratio of 4-HO-MET).
(§5) The enzymes giving the additional peak putatively corresponding to the 4-HO-MET-β-D-glucoside are listed below. […] A correct quantification of the product is not possible without a standard for the specific molecule. However, based on the assumption that the ratio area-to-concentration in the UV chromatograms will be similar to 4-HO-MET, estimates of the relative abundance for the additional peak are also given, expressed as percentage of converted 4-HO-MET. GLY enzymes hits are ranked according to their estimated conversion efficiency.
(§6) The experiments described in Examples 1 and 2 above were repeated for 4-OH-MiPT, 4-HO-DMT and 5-HO-DMT
Below is the corresponding data for 4-OH-MiPT.

[2] = Glycosylation of 4-HO-MET by GLY enzymes (UDP-glucose), LC-UV/MS; details: 0.5 mM 4-OH-MET, 1.25 mM UDP-glucose, 25% (v/v) GLY enzyme, 24 h at 30° C.; estimate from UV peak areas
Protocol: 4-HO-MET was dissolved in 100% (v/v) DMSO to a concentration of 10 mM. The solution was stored at −20° C. prior to use.
FastAP phosphatase (1 U/uL) from ThermoFisher Scientific (catalog no. EF0651).
GLY enzyme suspensions contain 10 mM Tris-HCl at pH7.4, 250 mM imidazole and 50% (v/v) glycerol.
as §1, §2, §3, §4
As standard, 4-HO-MET solutions at a concentrations of 500, 250, 125, 62.5, and 31.25 uM were prepared from the 10 mM stock and used for caliboration.
A representative example of the chromatograms obtained with a wavelength of 268 nm for the standard solutions resuspended in the reaction buffer, and the corresponding MS-SIM signal, is shown in FIG. 16. The peak corresponding to 4-HO-MET is indicated.
When analyzing the GLY reactions, 30 of them gave an additional peak with retention time 2.2 min (i.e. in the expected region for a 4-HO-MET glucoside) and molecular mass compatible with the expected glucoside product, together with a corresponding decrease in substrate concentration, compared to the no-enzyme controls.
The method was repeated using various GLY enzymes to produce 4-HO-MET glucosides.
as §5

[3] = Glycosylation of 4-OH-DMT by GLY enzymes (UDP-glucose), LC-UV/MS; details: conditions of Examples 1 and 2 repeated for 4-HO-DMT; estimate from UV peak areas
Protocol: as §1, §2, §3, §4, §5, §6
Below is the corresponding data for 4-OH-DMT and 5-HO-DMT.

[4] = Glycosylation of 4-OH-EPT by GLY enzymes (UDP-glucose), LC-UV/MS; details: conditions of Examples 1 and 2 repeated for 4-OH-EPT; estimate from UV peak areas
Protocol: as §1, §2, §3, §4, §5
The experiments described in Examples 1 and 2 above were repeated for 4-OH-EPT.
Below is the corresponding data for 4-OH-EPT.

Molecule	4-OH-MiPT GLY % (percentage of converted 4-OH-MiPT) [1]	4-OH-MET GLY % (percentage of converted 4-HO-MET) [2]	4-OH-DMT GLY % [3]	4-OH-EPT GLY % (percentage of converted 4-OH-EPT) [4]
B1	38.8%	31.6%	15.7%	23.4%
B2		7.4%	14.0%	
B3	23.2%			5.3%
B4	19.3%	36%	22.4%	7%
B5	85%	66.5%	30.2%	66.2%
B6	61.6%	40.5%	10.6%	46.3%
B7	71.5%	52.3%	25.0%	33%
